Results published in paper PMC9760430, “A stapled chromogranin A-derived peptide homes in on tumors that express αvβ6 or αvβ8 integrins” (International Journal of Biological Sciences, 2023).
Ends that are not written are not given here.

How the values were obtained:
[1] = target: recombinant murine αvβ6 integrin (murine) (UniProt P43406); experiment: direct integrin binding assay (near-infrared fluorescence scan of plates); microtiter plates coated with αvβ6 or αvβ8; peptide-IRDye conjugates incubated 1 h, washed, bound fluorescence read with Odyssey CLx; EC50
recombinant murine αvβ6 integrin (murine), sequence (P43406 whole entry, chain 1 of 2): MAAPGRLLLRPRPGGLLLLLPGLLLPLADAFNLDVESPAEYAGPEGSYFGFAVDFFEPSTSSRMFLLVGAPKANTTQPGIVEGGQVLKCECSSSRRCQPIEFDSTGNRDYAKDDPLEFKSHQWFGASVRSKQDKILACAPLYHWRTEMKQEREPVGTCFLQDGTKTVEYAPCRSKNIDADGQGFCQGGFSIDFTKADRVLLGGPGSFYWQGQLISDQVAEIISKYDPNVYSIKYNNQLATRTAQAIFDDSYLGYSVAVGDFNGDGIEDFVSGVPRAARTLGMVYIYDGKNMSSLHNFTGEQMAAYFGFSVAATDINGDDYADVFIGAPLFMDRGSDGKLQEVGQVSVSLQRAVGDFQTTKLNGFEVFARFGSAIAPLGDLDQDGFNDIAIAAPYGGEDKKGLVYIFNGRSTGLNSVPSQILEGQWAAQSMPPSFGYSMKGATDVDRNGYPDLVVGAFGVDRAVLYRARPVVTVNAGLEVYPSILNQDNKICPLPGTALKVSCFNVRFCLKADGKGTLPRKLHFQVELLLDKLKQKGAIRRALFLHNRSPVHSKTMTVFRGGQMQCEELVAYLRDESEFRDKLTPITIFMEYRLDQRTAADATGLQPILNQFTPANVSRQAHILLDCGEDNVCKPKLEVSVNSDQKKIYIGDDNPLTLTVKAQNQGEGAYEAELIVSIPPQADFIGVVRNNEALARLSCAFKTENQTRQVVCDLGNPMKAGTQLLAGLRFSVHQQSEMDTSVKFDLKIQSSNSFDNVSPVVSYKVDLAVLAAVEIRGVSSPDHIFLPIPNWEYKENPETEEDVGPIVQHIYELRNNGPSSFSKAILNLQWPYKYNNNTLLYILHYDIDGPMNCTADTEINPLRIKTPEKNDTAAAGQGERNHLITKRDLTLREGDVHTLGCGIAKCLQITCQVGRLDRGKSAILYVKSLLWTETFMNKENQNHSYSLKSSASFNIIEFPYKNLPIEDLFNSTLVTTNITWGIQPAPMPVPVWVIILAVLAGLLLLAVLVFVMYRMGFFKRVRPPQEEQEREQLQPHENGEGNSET
recombinant murine αvβ6 integrin (murine), sequence (Q9Z0T9 whole entry, chain 2 of 2, further chain): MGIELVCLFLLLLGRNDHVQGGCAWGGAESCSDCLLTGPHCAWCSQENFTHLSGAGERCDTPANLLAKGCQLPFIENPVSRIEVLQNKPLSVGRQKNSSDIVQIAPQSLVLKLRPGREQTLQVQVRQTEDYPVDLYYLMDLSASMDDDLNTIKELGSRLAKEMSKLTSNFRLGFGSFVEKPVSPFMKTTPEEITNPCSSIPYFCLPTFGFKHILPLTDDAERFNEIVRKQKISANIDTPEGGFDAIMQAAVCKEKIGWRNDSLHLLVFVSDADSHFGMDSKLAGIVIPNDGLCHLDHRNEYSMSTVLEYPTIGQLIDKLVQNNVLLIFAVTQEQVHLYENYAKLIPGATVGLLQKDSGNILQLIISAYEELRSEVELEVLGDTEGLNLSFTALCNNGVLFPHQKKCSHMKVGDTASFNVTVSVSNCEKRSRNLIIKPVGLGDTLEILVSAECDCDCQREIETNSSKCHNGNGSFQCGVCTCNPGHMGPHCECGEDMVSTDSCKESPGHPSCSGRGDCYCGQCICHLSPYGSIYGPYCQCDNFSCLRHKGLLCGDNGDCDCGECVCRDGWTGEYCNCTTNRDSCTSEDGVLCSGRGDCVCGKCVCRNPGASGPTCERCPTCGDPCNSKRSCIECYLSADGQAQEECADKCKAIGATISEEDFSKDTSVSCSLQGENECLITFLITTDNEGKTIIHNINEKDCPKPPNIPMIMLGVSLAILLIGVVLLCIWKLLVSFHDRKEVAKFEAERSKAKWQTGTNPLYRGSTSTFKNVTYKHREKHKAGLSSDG

[2] = target: recombinant human αvβ8 integrin (human) (UniProt P06756); experiment: as above
[3] = target: recombinant murine αvβ8 integrin (murine) (UniProt P43406); experiment: as above
recombinant murine αvβ8 integrin (murine), sequence (P43406 whole entry, chain 1 of 2): as the sequence (P43406 whole entry, chain 1 of 2) above
recombinant murine αvβ8 integrin (murine), sequence (Q0VBD0 whole entry, chain 2 of 2, further chain): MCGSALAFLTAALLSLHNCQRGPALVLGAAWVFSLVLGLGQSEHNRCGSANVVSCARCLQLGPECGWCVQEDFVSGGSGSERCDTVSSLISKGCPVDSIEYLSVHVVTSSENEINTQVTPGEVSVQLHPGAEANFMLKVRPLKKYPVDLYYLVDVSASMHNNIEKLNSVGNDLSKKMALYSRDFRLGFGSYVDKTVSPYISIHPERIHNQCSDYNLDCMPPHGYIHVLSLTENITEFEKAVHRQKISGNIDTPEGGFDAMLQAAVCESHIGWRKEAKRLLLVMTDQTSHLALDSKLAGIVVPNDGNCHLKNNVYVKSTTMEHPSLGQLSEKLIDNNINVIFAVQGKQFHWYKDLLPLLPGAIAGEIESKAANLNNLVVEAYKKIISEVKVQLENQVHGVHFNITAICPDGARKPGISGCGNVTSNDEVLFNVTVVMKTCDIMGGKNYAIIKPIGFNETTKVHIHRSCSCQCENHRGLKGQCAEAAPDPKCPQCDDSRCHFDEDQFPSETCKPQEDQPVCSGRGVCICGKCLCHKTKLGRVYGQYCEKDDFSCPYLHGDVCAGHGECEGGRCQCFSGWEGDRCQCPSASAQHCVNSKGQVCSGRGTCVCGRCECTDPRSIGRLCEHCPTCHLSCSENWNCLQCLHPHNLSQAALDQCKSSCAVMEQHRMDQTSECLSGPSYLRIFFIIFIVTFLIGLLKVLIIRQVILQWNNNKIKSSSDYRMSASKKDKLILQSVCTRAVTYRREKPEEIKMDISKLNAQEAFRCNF

[4] = target: recombinant human αvβ6 integrin (human) (UniProt P06756); experiment: as above
[5] = target: recombinant human αvβ6 integrin (human) (UniProt P06756); experiment: ELISA; competitive integrin binding assay: αvβ6-coated plates, isoDGR peptide labeled with peroxidase as probe for the integrin-binding site; Ki

| EC50 [1] [nM] | EC50 [2] [nM] | EC50 [3] [nM] | EC50 [4] [nM] | Ki [5] [nM] | Binder |
| --- | --- | --- | --- | --- | --- |
| > 100 | > 100 | > 100 | > 100 | – | C(maleimide‑IRDye 800CW)FETLRGEERILSILRHQNLLKELQD-NH2 [2a-IRDye conjugate] |
| – | – | – | – | > 1000 | C(maleimide‑NOTA)FETLRGEERILSILRHQNLLKELQD-NH2 [2a-NOTA conjugate] |
